Here are results for two molecules from article PMC8683085, “Serine ADP-ribosylation marks nucleosomes for ALC1-dependent chromatin remodeling” (eLife, 2021).

Assay [1] has as its target H2BS6ADPr1 nucleosome, P68431.
The target in assay [2] is PARP1 (full-length, N-terminal 6xHis-tag) (UniProt P09874).
The target is the same in assay [3]. This is another data set of the same source.

Sequence of PARP1 (full-length, N-terminal 6xHis-tag) (P09874 whole entry): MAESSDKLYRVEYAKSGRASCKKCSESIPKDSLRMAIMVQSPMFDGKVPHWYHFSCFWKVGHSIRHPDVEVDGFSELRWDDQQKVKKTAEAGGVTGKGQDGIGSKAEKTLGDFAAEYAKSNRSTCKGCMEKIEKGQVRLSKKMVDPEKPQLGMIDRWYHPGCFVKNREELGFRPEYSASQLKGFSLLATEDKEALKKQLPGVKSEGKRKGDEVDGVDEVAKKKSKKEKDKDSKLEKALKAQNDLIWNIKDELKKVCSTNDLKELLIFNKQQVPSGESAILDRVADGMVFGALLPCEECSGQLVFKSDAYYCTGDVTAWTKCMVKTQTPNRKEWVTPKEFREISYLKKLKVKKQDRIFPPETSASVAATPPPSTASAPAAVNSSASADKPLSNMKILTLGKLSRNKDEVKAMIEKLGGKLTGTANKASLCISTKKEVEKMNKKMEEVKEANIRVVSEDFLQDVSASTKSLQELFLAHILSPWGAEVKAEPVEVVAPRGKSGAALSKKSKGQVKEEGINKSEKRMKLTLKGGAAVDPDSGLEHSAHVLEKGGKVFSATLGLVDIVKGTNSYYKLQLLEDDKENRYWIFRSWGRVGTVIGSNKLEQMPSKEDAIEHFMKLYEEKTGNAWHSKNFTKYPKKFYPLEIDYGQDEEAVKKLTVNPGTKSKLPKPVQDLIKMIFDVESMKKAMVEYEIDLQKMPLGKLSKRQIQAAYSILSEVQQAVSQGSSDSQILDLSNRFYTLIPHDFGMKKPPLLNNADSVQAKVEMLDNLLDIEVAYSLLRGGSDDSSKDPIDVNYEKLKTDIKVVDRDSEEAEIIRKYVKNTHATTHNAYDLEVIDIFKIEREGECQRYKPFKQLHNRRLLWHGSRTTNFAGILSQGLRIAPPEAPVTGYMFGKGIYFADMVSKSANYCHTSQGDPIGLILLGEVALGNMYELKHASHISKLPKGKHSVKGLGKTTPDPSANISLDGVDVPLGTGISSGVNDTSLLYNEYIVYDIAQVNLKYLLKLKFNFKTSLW

B1: ALC1 (full-length, 6xHis-1xFLAG-ALC1), Q86WJ1 1-897 (enzyme)
chain: MERAGATSRGGQAPGFLLRLHTEGRAEAARVQEQDLRQWGLTGIHLRSYQLEGVNWLAQRFHCQNGCILGDEMGLGKTCQTIALFIYLAGRLNDEGPFLILCPLSVLSNWKEEMQRFAPGLSCVTYAGDKEERACLQQDLKQESRFHVLLTTYEICLKDASFLKSFPWSVLVVDEAHRLKNQSSLLHKTLSEFSVVFSLLLTGTPIQNSLQELYSLLSFVEPDLFSKEEVGDFIQRYQDIEKESESASELHKLLQPFLLRRVKAEVATELPKKTEVVIYHGMSALQKKYYKAILMKDLDAFENETAKKVKLQNILSQLRKCVDHPYLFDGVEPEPFEVGDHLTEASGKLHLLDKLLAFLYSGGHRVLLFSQMTQMLDILQDYMDYRGYSYERVDGSVRGEERHLAIKNFGQQPIFVFLLSTRAGGVGMNLTAADTVIFVDSDFNPQNDLQAAARAHRIGQNKSVKVIRLIGRDTVEEIVYRKAASKLQLTNMIIEGGHFTLGAQKPAADADLQLSEILKFGLDKLLASEGSTMDEIDLESILGETKDGQWVSDALPAAEGGSRDQEEGKNHMYLFEGKDYSKEPSKEDRKSFEQLVNLQKTLLEKASQEGRSLRNKGSVLIPGLVEGSTKRKRVLSPEELEDRQKKRQEAAAKRRRLIEEKKRQKEEAEHKKKMAWWESNNYQSFCLPSEESEPEDLENGEESSAELDYQDPDATSLKYVSGDVTHPQAGAEDALIVHCVDDSGHWGRGGLFTALEKRSAEPRKIYELAGKMKDLSLGGVLLFPVDDKESRNKGQDLLALIVAQHRDRSNVLSGIKMAALEEGLKKIFLAAKKKKASVHLPRIGHATKGFNWYGTERLIRKHLAARGIPTYIYYFPRSKSAVLHSQSSSSSSRQLVP
modifications: here or on the partner: mono-ADP-ribose on S6
B1 came in with an ALC1 nucleosome remodeling rate constant (REA assay) in assay [1] of less than 0.0003 min⁻¹.

B2: FLAG-HPF1 (amino acids 27-346) (natural protein)
chain: KFCEADVSSDLRKEVENHYKLSLPEDFYHFWKFCEELDPEKPSDSLSASLGLQLVGPYDILAGKHKTKKKSTGLNFNLHWRFYYDPPEFQTIIIGDNKTQYHMGYFRDSPDEFPVYVGINEAKKNCIIVPNGDNVFAAVKLFLTKKLREITDKKKINLLKNIDEKLTEAARELGYSLEQRTVKMKQRDKKVVTKTFHGAGLVVPVDKNDVGYRELPETDADLKRICKTIVEAASDEERLKAFAPIQEMMTFVQFANDECDYGMGLELGMDLFCYGSHYFHKVAGQLLPLAYNLLKRNLFAEIIEEHLANRSQENIDQLAA
In assay [2], B2 gave an inhibition of PARP1-catalyzed ADP-ribose polymerization from the H3S10ADPr1 peptide (RP-HPLC); HPF1 concentration at 50% inhibition of 14 µM. The share of mono-ADP-ribosylated H3 (1-20) peptide among the products of the PARP1 ADPr reaction (RP-HPLC), HPF1 from 5 μM to 100 μM in assay [3] was determined as 94%.
